B1: L1-9: SU-responsive TetR(B) variant, library L1 hit (protein)
chain: MGSRLDKSKVINSALELLNEVGIEGLTTRKLAQKLGVEQPTLYWHVKNKRALLDALAIEMLDRHATHFCPLEGESWQDFLRNNAKSMRCALLSHRDGAKVCLGTGFTEKQYETAENSLAFLCQQGFSLENALYAMQAVCIFTLGCVLLDQELQVAKEERETPTTDSMPPLLRQALELKDHQGAEPAFLFGLELIICGLEKQLKCESGS
modifications: Sulfonylurea responsive repressor L1-09
B2: L1-22: SU-responsive TetR(B) variant, library L1 hit, SEQ ID NO: 7 (protein)
chain: MGSRLDKSKVINSALELLNEVGIEGLTTRKLAQKLGVEQPTLYWHVKNKRALLDALAIEMMDRHHTHFCPLEGESWQDFLRNTAKSYRCALLSHRDGAKVCLGTAITEKQYETKENNLAFLCQQGFSLENALYARQAVRVFTLGCVLFDQEMQVAKEERETPTTDSMPPLLRQASELLDHQGAEPAFLFGLELIICGLEKQLKSESGS
modifications: Sulfornylurea responsive repressor L1-22
B3: L1-24: SU-responsive TetR(B) variant, library L1 hit (protein)
chain: MGSRLDKSKVINSALELLNEVGIEGLTTRKLAQKLGVEQPTLYWHVKNKRALLDALAIEMLDRHNTHFCPLEGESWQDFLRNSAKSMRCALLSHRDGAKVLLGTAVTEKQYETTENSLAFLCQQGFSLENALYAIRAVRTFTLGCVLVDQERQVAKEERETPTTDSMPPLLRQAKELLDHQGAEPAFLFGLELIICGLEKQLKCESGS
modifications: Sulfonylurea responsive repressor L1-24
B4: L1-31: SU-responsive TetR(B) variant, library L1 hit (protein)
chain: MGSRLDKSKVINSALELLNEVGIEGLTTRKLAQKLGVEQPTLYWHVKNKRALLDALAIEMLDRHATHFCPLEGESWQDFLRNNAKSMRCALLSHRDGAKVMLGTRATEKQYETVENRLAFLCQQGFSLENALYAVRAVHWFTLGCVLIDQEMQVAKEERETPTTDSMPPLLRQAYELYDHQGAEPAFLFGLELIICGLEKQLKCESGS
modifications: Sulfonylurea responsive repressor L1-31
B5: L1-38: SU-responsive TetR(B) variant, library L1 hit (protein)
chain: MGSRLDKSKVINSALELLNEVGIEGLTTRKLAQKLGVEQPTLYWHVKNKRALLDALAIEMADRHHTHFCPLEGESWQDFLRNNAKSMRCALLSHRDGAKVWLGTAWTEKQYETTENMLAFLCQQGFSLENALYAWRAVTMFTLGCVLRDQEWQVAKEERETPTTDSMPPLLRQALELGDHQGAEPAFLFGLELIICGLEKQLKCESGS
modifications: Sulfonylurea responsive repressor L1-38
B6: L1-28: SU-responsive TetR(B) variant, library L1 hit (protein)
chain: MGSRLDKSKVINSALELLNEVGIEGLTTRKLAQKLGVEQPTLYWHVKNKRALLDALAIEMLDRHATHFCPLEGESWQDFLRNNAKSMRCALLSHRDGAKVWLGTAWTEKQYETPENVLAFLCQQGFSLENALYASRAVVTFTLGCVLTDQEKQVAKEERETPTTDSMPPLLRQAWELLDHQGAEPAFLFGLELIICGLEKQLKCESGS
modifications: Sulfonylurea responsive repressor L1-28
B7: L1-44: SU-responsive TetR(B) variant, library L1 hit, SEQ ID NO: 13 (protein)
chain: MGSRLDKSKVINSALELLNEVGIEGLTTRKLAQKLGVEQPTLYWHVKNKRALLDALAIEMLDRHATHFCPLEGESWQDFLRNNAKSYRCALLSHRDGAKVYLGTAVTEKQYETAENQLAFLCQQGFSLENALYAVKAVAGFTLGCVLWDQESQVAKEERETPTTASMPPLLRQAVELADHQGAEPAFLFGLELIICGLEKQLKCESGS
modifications: Sulfonylurea responsive repressor L1-44
B8: L1-29: SU-responsive TetR(B) variant, library L1 hit, SEQ ID NO: 10 (protein)
chain: MGSRLDKSKVINSALELLNEVGIEGLTTRKLAQKLGVEQPTLYWHVKNKRALLDALAIEMMDRHQTHFCPLEGESWQDFLRNTAKSMRCALLSHRDGAKVWLGTRWTEKQYETPENMLAFLCQQGFSLENALYAWSAVCNFTLGCVLSDQERQVAKEERETPTTDSMPPLLRQAWELSDHQGAEPAFLFGLELIICGLEKQLKCESGS
modifications: Sulfonylurea responsive repressor L1-29

system: lacZ under control of the tetA promoter (PtetA) in E. coli KM3; format: cell-based; settings: Table 4; chlorimuron 20 ppm; 48 hrs at 30° C.

How did the “relative β-galactosidase activity, inducer Ci” value turn out when B1 was run?
The value was 9.8.

B2 was tested. Which “relative β-galactosidase activity, inducer Ci” value did it give?
Its value is 10.4.

B3 was tested. Which “relative β-galactosidase activity, inducer Ci” value did it give?
Its value is 22.1.

B4 was tested. Which “relative β-galactosidase activity, inducer Ci” value did it give?
Its value is 1.1.

B5 was tested. Which “relative β-galactosidase activity, inducer Ci” value did it give?
The value was 15.3.

Which “relative β-galactosidase activity, inducer Ci” value does the source give for B6 here?
The value was 14.6.

With B7 as the molecule, how does the “relative β-galactosidase activity, inducer Ci” value read?
The value was 6.7.

For B8, which “relative β-galactosidase activity, inducer Ci” value is on record?
The value was 20.9.

same assay, conditions: Table 4; chlorsulfuron 20 ppm; 48 hrs at 30° C.

B1 was tested. Which “relative β-galactosidase activity, inducer Cs” value did it give?
The value was 23.6.

B2 was tested. Which “relative β-galactosidase activity, inducer Cs” value did it give?
Its value is 0.2.

How did the “relative β-galactosidase activity, inducer Cs” value turn out when B3 was run?
Its value is 3.3.

For B4, which “relative β-galactosidase activity, inducer Cs” value is on record?
The value was 1.4.

Which “relative β-galactosidase activity, inducer Cs” value does the source give for B5 here?
The value was 14.0.

How did the “relative β-galactosidase activity, inducer Cs” value turn out when B6 was run?
The value was 5.8.

B7 was tested. Which “relative β-galactosidase activity, inducer Cs” value did it give?
Its value is 12.0.

With B8 as the molecule, how does the “relative β-galactosidase activity, inducer Cs” value read?
Its value is 15.8.

same assay, conditions: Table 4; ethametsulfuron 20 ppm; 48 hrs at 30° C.

How did the “relative β-galactosidase activity, inducer Es” value turn out when B1 was run?
The value was 11.8.

For B2, which “relative β-galactosidase activity, inducer Es” value is on record?
Its value is 0.3.

For B3, which “relative β-galactosidase activity, inducer Es” value is on record?
The value was 0.2.

With B4 as the molecule, how does the “relative β-galactosidase activity, inducer Es” value read?
Its value is 13.7.

B5 was tested. Which “relative β-galactosidase activity, inducer Es” value did it give?
Its value is 14.8.

Which “relative β-galactosidase activity, inducer Es” value does the source give for B6 here?
The value was 0.8.

B7 was tested. Which “relative β-galactosidase activity, inducer Es” value did it give?
Its value is 2.4.

With B8 as the molecule, how does the “relative β-galactosidase activity, inducer Es” value read?
The value was 1.7.

same assay, conditions: Table 4; metsulfuron 20 ppm; 48 hrs at 30° C.

B1 was tested. Which “relative β-galactosidase activity, inducer Ms” value did it give?
The value was 1.2.

Which “relative β-galactosidase activity, inducer Ms” value does the source give for B2 here?
The value was 0.1.

With B3 as the molecule, how does the “relative β-galactosidase activity, inducer Ms” value read?
Its value is 0.4.

How did the “relative β-galactosidase activity, inducer Ms” value turn out when B4 was run?
The value was 0.5.

Which “relative β-galactosidase activity, inducer Ms” value does the source give for B5 here?
Its value is 14.7.

How did the “relative β-galactosidase activity, inducer Ms” value turn out when B6 was run?
The value was 18.8.

How did the “relative β-galactosidase activity, inducer Ms” value turn out when B7 was run?
The value was 2.9.

With B8 as the molecule, how does the “relative β-galactosidase activity, inducer Ms” value read?
The value was 13.5.

same assay, conditions: Table 4; nicosulfuron 20 ppm; 48 hrs at 30° C.

Which “relative β-galactosidase activity, inducer Ns” value does the source give for B1 here?
The value was 0.3.

How did the “relative β-galactosidase activity, inducer Ns” value turn out when B2 was run?
Its value is 0.2.

For B3, which “relative β-galactosidase activity, inducer Ns” value is on record?
The value was 0.3.

For B4, which “relative β-galactosidase activity, inducer Ns” value is on record?
Its value is 0.5.

Which “relative β-galactosidase activity, inducer Ns” value does the source give for B5 here?
Its value is 8.7.

For B6, which “relative β-galactosidase activity, inducer Ns” value is on record?
Its value is 0.1.

For B7, which “relative β-galactosidase activity, inducer Ns” value is on record?
The value was 0.4.

Which “relative β-galactosidase activity, inducer Ns” value does the source give for B8 here?
Its value is 0.1.

same assay, conditions: Table 4; rimsulfuron 20 ppm; 48 hrs at 30° C.

With B1 as the molecule, how does the “relative β-galactosidase activity, inducer Rs” value read?
Its value is 0.4.

With B2 as the molecule, how does the “relative β-galactosidase activity, inducer Rs” value read?
Its value is 0.1.

B3 was tested. Which “relative β-galactosidase activity, inducer Rs” value did it give?
The value was 0.3.

B4 was tested. Which “relative β-galactosidase activity, inducer Rs” value did it give?
The value was 0.4.

For B5, which “relative β-galactosidase activity, inducer Rs” value is on record?
The value was 9.5.

For B6, which “relative β-galactosidase activity, inducer Rs” value is on record?
The value was 0.2.

How did the “relative β-galactosidase activity, inducer Rs” value turn out when B7 was run?
The value was 0.3.

With B8 as the molecule, how does the “relative β-galactosidase activity, inducer Rs” value read?
Its value is 0.1.

same assay, conditions: Table 4; sulfometuron 20 ppm; 48 hrs at 30° C.

How did the “relative β-galactosidase activity, inducer Sm” value turn out when B1 was run?
The value was 0.6.

With B2 as the molecule, how does the “relative β-galactosidase activity, inducer Sm” value read?
Its value is 17.2.

B3 was tested. Which “relative β-galactosidase activity, inducer Sm” value did it give?
Its value is 3.1.

Which “relative β-galactosidase activity, inducer Sm” value does the source give for B4 here?
The value was 0.9.

With B5 as the molecule, how does the “relative β-galactosidase activity, inducer Sm” value read?
The value was 18.3.

B6 was tested. Which “relative β-galactosidase activity, inducer Sm” value did it give?
The value was 1.1.

How did the “relative β-galactosidase activity, inducer Sm” value turn out when B7 was run?
Its value is 0.4.

B8 was tested. Which “relative β-galactosidase activity, inducer Sm” value did it give?
Its value is 2.7.

same assay, conditions: Table 4; thifensulfuron 20 ppm; 48 hrs at 30° C.

Which “relative β-galactosidase activity, inducer Ts” value does the source give for B1 here?
Its value is 1.1.

B2 was tested. Which “relative β-galactosidase activity, inducer Ts” value did it give?
The value was 0.0.

For B3, which “relative β-galactosidase activity, inducer Ts” value is on record?
Its value is 0.3.

How did the “relative β-galactosidase activity, inducer Ts” value turn out when B4 was run?
Its value is 0.9.

With B5 as the molecule, how does the “relative β-galactosidase activity, inducer Ts” value read?
The value was 16.7.

How did the “relative β-galactosidase activity, inducer Ts” value turn out when B6 was run?
The value was 0.1.

How did the “relative β-galactosidase activity, inducer Ts” value turn out when B7 was run?
The value was 1.9.

B8 was tested. Which “relative β-galactosidase activity, inducer Ts” value did it give?
The value was 0.0.

same assay, conditions: Table 4; tribenuron 20 ppm; 48 hrs at 30° C.

B1 was tested. Which “relative β-galactosidase activity, inducer Tb” value did it give?
Its value is 0.4.

Which “relative β-galactosidase activity, inducer Tb” value does the source give for B2 here?
Its value is 0.3.

B3 was tested. Which “relative β-galactosidase activity, inducer Tb” value did it give?
Its value is 1.6.

For B4, which “relative β-galactosidase activity, inducer Tb” value is on record?
The value was 0.1.

How did the “relative β-galactosidase activity, inducer Tb” value turn out when B5 was run?
The value was 15.8.

With B6 as the molecule, how does the “relative β-galactosidase activity, inducer Tb” value read?
Its value is 0.3.

How did the “relative β-galactosidase activity, inducer Tb” value turn out when B7 was run?
Its value is 0.4.

For B8, which “relative β-galactosidase activity, inducer Tb” value is on record?
Its value is 0.3.

same assay, conditions: Table 8; library L2 parents and hits

How did the inducer preference turn out when B1 was run?
The inducer preference was 4, 9 (weak).

With B2 as the molecule, how does the inducer preference read?
The inducer preference was 3.

With B7 as the molecule, how does the inducer preference read?
Its inducer preference is 9 (weak).

For B8, which inducer preference is on record?
The inducer preference was 9 (weak).

same assay, conditions: Table 10; 48 hours at 30° C.

B1 was tested. Which “relative β-galactosidase activity, No inducer” value did it give?
The value was 0.9.

For B2, which “relative β-galactosidase activity, No inducer” value is on record?
The value was 0.2.

Which “relative β-galactosidase activity, No inducer” value does the source give for B7 here?
Its value is 0.6.

B8 was tested. Which “relative β-galactosidase activity, No inducer” value did it give?
The value was 0.1.

same assay, conditions: Table 10; ethametsulfuron 2 ppm; 48 hours at 30° C.

Which “relative β-galactosidase activity, inducer Es” value does the source give for B1 here?
The value was 14.8.

same assay, conditions: first round hits, 20 ppm inducer (Table 4)

With B1 as the molecule, how does the “activity on sulfonylurea inducers” value read?
Its value is “strong activity on both ethametsulfuron and chlorsulfuron”.

For B2, which “activity on sulfonylurea inducers” value is on record?
The value was “strong sulfometuron activity”.

With B7 as the molecule, how does the “activity on sulfonylurea inducers” value read?
Its value is “moderate activity on metsulfuron, ethametsulfuron and chlorsulfuron”.

How did the “activity on sulfonylurea inducers” value turn out when B8 was run?
The value was “moderate metsulfuron activity”.

same assay, conditions: library L2 retest, inducers at 2 ppm

How did the “induction response and background” value turn out when B1 was run?
The value was “sensitivity to 2 ppm Es”.
